Assay results from patent publication US20180258187A1.

How the values were obtained:
[1] = target: EBV-LMP2 peptide/HLA-A*02:01 complex as naturally presented on HLA-A*02:01+ EBV+ cells (BLCL, tumour cell lines) (human; Epstein-Barr virus); assay: cell-based or functional assay
[2] = target: P19 peptide (mixture of 19 endogenous control peptides) loaded T2 cell; assay: flow cytometry, phage antibody on peptide loaded T2 cells
[3] = target: EBV-LMP2 peptide presented by HLA-A*02:06 on artificial antigen presenting cells (human; Epstein-Barr virus)

B1: LMP2-38 Dimeric BsAb (bispecific antibody, part only)
VH: QSALTQPASVSGSPGQSITISCTGTSSDVGSYNDVSWYQQHPGKAPKLMIYDVSNRPSGVSNRFSGSKSGNTASLTISGLQTEDEADYYCNSYTSSNTYVFGTGTKVTVLG
VL: QVQLVQSGAEVKKPGASVQVSCRASGYTITSYYMHWVRQAPGQGLEWMGVINPNAGSTRYAQKFQGRVTMSTDTSTSTVYMALSSLRSDDTAVYYCARGMYRMYDWGQGTLVTVSS
chain 1: DVQLVQSGAEVKKPGASVKVSCKASGYTFTRYTMHWVRQAPGQGLEWIGYINPSRGYTNYADSVKGRFTITTDKSTSTAYMELSSLRSEDTATYYCARYYDDHYSLDYWGQGTTVTVSSGEGTSTGSGGSGGSGGADDIVLTQSPATLSLSPGERATLSCRASQSVSYMNWYQQKPGKAPKRWIYDTSKVASGVPARFSGSGSGTDYSLTINSLEAEDAATYYCQQWSSNPLTFGGGTKVEIK
chain 2: RTPLGDTTHTSGMVSKLSQLQTELLAALLESGLSKEALIQALGEGSGGAPHHHHHH
% Max Killing, DT BLCL (T cell dependent cytotoxicity, 51Cr release) [1]: 39.9% | % Max Killing, F BLCL (T cell dependent cytotoxicity, 51Cr release) [1]: 25.8% | % Max Killing, HONE-1-A2 (T cell dependent cytotoxicity, 51Cr release) [1]: 16.8% | % Max Killing, RPMI-6666 (T cell dependent cytotoxicity, 51Cr release) [1]: 26.5% | EC50 (µg/mL), DT BLCL (T cell dependent cytotoxicity) [1]: 0.025 µg/mL | EC50 (µg/mL), F BLCL (T cell dependent cytotoxicity) [1]: 0.033 µg/mL | EC50 (µg/mL), HONE-1-A2 (T cell dependent cytotoxicity) [1]: 0.024 µg/mL | EC50 (µg/mL), RPMI-6666 (T cell dependent cytotoxicity) [1]: 0.037 µg/mL

B2: LMP2-38-11 (antibody, name in Kabat numbering, V domains shown)
VH: QVQLVQSGAEVKKPGASVQVSCRASEYTITSYYMHWVRQAPGQGLEWMGVVNPNAGSTRYAQKFQGRVTMSTDTSTSTVYMALSSLRSDDTAVYYCARGMYRMYDWGQGTLVTVSS
VL: QSALTQPASVSGSPGQSITISCTGTSSDVGSYNDVSWYQQHPGKAPKLMIYDVSNRPSGVSNRFSGSKSGNTASLTISGLQTEDEADYYCNSYTSSNTYVFGTGTKVTVLG
ratio of specific phage antibody FACS signal to negative control FACS signal [2]: 2 to 10

B3: LMP2-38 IgG1 (antibody, V domains shown)
VH: QVQLVQSGAEVKKPGASVQVSCRASGYTITSYYMHWVRQAPGQGLEWMGVINPNAGSTRYAQKFQGRVTMSTDTSTSTVYMALSSLRSDDTAVYYCARGMYRMYDWGQGTLVTVSS
VL: QSALTQPASVSGSPGQSITISCTGTSSDVGSYNDVSWYQQHPGKAPKLMIYDVSNRPSGVSNRFSGSKSGNTASLTISGLQTEDEADYYCNSYTSSNTYVFGTGTKVTVLG
number beside the legend entry (name not given; FL2-H histogram) [3]: 81.5
